Laboratory results reported in PMC4996978 (2016).

Legend:
AtUBC8 [1] = biological target: T1, AtUBC8 (Arabidopsis thaliana, UniProt P35131 1-148); experiment: ITC
AtUBC8 [2] = biological target: T1, AtUBC8; experiment: ITC; remark: listed apart in the source

T1 sequence (P35131 whole entry): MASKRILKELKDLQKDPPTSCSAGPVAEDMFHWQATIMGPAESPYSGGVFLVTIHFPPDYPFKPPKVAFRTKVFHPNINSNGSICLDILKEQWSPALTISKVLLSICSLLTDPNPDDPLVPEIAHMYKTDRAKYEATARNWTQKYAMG

- Ka (AtUBC8 [1]): 3.53e+06 M⁻¹
- Kd (AtUBC8 [2]): 283 nM
B1: AtMUB3 (natural protein)
chain: MPEEESIDIKFRLYDGSDIGPFRYSAASTVDFLKQRVVSDWPKGKTVVPKGINEVKLISSGKILENNKTVGQCKTPFGDIAGGVIVMHVVVQPSLAKSKTEKKVDKAPKAVICTCTIL
